According to patent publication US20190233542A1:

Tests used:
[1] = target: human PCSK9 (Proprotein Convertase Subtilisin/Kexin type 9) (human) (UniProt Q8NBP7); experiment: cell-based or functional assay
[2] = target: human PCSK9 (Proprotein Convertase Subtilisin/Kexin type 9) (human) (UniProt Q8NBP7); experiment: binding ELISA on human PCSK9
[3] = target: human PCSK9-mFc-biotin (human) (UniProt Q8NBP7); experiment: competitive ELISA, blocking of PCSK9 binding to LDL-R

- IC50, LDL-uptake assay in HepG2 [1]: 77.6 nM
- EC50 [2]: 0.044 nM
- IC50 [3]: 2.21 nM
Substance: Repatha (antibody)
